Paper PMC12517307

Biological target: p53 (UniProt P04637)
Sequence (P04637 whole entry): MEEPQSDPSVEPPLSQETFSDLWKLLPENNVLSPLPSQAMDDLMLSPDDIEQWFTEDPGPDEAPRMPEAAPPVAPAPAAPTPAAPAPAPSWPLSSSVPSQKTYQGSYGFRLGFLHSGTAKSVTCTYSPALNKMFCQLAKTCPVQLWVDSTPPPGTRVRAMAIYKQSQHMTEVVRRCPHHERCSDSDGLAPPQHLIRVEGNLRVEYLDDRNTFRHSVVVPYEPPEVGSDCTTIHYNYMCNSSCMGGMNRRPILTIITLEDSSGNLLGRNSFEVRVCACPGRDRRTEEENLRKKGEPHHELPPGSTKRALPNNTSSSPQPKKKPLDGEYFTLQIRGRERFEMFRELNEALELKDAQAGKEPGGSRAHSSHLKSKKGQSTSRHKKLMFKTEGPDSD

p53 acetylation (IP with anti-p53, blot with anti-acetyl-lysine) in 3T3-L1 adipocytes overexpressing p53 and p300: reduction by NDN against control adipocytes; reversed by further addition of p300: 51%
Substance: p300 acetyl transferase, Q09472 1-2414
